In US20130052191A1 (Sanofi, published 2013):

How the values were obtained:
[1] = biological target: complement component C1q (in baby rabbit complement) (rabbit); test: cell-based or functional assay
[2] = biological target: α2β1 integrin (VLA-2) on HT1080 cells (UniProt P17301 30-1181; P05556 21-798); test: cell-based or functional assay
α2β1 integrin (VLA-2) on HT1080 cells, sequence (P17301 30-1181, chain 1 of 2): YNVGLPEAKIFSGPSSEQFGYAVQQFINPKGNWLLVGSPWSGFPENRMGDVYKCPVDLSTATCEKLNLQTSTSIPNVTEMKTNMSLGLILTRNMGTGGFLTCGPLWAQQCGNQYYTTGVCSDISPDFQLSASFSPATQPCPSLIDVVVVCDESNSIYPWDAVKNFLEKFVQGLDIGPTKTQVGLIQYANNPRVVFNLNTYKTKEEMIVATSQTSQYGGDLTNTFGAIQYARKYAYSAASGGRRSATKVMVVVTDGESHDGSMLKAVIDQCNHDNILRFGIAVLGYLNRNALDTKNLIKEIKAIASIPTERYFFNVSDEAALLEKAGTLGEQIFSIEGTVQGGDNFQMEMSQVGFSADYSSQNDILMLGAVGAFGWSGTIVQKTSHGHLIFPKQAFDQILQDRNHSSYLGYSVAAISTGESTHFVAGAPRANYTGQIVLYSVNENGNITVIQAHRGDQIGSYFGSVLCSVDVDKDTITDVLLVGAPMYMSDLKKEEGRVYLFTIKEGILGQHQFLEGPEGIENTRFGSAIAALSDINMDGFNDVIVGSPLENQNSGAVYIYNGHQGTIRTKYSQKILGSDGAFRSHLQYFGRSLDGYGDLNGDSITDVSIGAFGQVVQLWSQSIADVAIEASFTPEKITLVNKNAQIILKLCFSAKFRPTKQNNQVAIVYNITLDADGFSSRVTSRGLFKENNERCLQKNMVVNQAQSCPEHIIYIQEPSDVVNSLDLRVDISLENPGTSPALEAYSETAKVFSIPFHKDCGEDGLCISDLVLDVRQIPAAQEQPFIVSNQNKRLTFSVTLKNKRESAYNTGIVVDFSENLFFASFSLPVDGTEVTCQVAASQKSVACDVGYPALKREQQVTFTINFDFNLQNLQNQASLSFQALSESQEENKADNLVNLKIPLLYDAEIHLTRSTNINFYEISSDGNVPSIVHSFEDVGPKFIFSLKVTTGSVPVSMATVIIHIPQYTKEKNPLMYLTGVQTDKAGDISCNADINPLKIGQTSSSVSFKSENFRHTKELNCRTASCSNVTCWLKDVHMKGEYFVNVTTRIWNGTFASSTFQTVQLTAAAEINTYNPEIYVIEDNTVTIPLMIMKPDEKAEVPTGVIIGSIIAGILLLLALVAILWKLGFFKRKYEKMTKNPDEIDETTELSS
α2β1 integrin (VLA-2) on HT1080 cells, sequence (P05556 21-798, chain 2 of 2): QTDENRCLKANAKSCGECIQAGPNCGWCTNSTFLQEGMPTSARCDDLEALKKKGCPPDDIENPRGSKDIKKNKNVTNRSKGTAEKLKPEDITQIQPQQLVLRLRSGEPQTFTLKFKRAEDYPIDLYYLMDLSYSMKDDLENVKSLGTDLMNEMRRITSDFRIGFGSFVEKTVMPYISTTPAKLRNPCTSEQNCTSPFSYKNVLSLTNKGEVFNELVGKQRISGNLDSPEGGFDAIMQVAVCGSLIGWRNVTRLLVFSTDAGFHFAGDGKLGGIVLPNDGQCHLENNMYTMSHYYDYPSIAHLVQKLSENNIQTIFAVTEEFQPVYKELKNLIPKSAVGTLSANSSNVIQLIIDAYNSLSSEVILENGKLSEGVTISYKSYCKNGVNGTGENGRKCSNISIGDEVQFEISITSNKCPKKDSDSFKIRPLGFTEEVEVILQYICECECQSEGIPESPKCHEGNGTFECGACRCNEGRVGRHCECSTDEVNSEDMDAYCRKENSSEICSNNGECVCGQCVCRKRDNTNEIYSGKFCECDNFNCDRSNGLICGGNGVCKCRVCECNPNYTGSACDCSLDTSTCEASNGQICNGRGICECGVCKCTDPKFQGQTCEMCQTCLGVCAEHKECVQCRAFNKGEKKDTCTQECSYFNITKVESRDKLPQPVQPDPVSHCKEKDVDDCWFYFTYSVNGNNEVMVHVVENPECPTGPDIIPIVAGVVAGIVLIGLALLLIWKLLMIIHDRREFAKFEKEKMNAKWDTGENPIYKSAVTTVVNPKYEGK

B1: anti-VLA-2 IgG1-S298A/S324N (antibody)
heavy: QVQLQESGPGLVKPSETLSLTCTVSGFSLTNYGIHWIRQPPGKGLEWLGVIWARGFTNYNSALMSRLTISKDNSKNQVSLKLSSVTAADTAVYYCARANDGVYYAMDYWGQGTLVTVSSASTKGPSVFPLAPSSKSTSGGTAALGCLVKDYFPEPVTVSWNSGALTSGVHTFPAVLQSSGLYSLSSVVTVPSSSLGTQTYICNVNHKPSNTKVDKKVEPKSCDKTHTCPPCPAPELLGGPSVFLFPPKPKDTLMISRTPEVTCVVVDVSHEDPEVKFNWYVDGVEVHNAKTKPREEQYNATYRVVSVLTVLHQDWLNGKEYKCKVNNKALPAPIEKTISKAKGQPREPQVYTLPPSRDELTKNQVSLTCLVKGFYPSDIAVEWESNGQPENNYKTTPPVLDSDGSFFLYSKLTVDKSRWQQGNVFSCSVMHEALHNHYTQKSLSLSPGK
light: DFVMTQSPAFLSVTPGEKVTITCSAQSSVNYIHWYQQKPDQAPKKLIYDTSKLASGVPSRFSGSGSGTDYTFTISSLEAEDAATYYCQQWTTNPLTFGQGTKVEIKRTVAAPSVFIFPPSDEQLKSGTASVVCLLNNFYPREAKVQWKVDNALQSGNSQESVTEQDSKDSTYSLSSTLTLSKADYEKHKVYACEVTHQGLSSPVTKSFNRGEC
[1]
  CDC fold increase (LDH release, HT1080 cells, baby rabbit complement, antibody 1 µg/ml): ≥ 6.6 fold
[2]
  ADCC fold increase (LDH release, HT1080 target cells with human PBMC, antibody 0.1 µg/ml): 2 fold

B2: anti-VLA-2 IgG1 (antibody)
heavy: not shown
light: DFVMTQSPAFLSVTPGEKVTITCSAQSSVNYIHWYQQKPDQAPKKLIYDTSKLASGVPSRFSGSGSGTDYTFTISSLEAEDAATYYCQQWTTNPLTFGQGTKVEIKRTVAAPSVFIFPPSDEQLKSGTASVVCLLNNFYPREAKVQWKVDNALQSGNSQESVTEQDSKDSTYSLSSTLTLSKADYEKHKVYACEVTHQGLSSPVTKSFNRGEC
[2]
  ADCC fold increase (LDH release, HT1080 target cells with human PBMC, antibody 0.1 µg/ml): 1.7 fold

B3: anti-VLA-2 IgG1-S298A (antibody)
heavy: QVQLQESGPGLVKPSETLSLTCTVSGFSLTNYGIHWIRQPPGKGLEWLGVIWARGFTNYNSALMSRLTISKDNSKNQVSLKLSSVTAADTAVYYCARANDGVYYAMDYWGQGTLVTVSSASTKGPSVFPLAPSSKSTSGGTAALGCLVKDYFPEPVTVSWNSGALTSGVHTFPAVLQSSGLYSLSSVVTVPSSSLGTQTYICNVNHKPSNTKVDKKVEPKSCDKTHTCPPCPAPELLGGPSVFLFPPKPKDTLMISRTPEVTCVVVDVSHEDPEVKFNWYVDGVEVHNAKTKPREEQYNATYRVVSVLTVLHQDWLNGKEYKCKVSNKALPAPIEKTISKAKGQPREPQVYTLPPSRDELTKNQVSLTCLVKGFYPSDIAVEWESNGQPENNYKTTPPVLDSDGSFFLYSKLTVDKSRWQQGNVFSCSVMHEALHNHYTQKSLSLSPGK
light: DFVMTQSPAFLSVTPGEKVTITCSAQSSVNYIHWYQQKPDQAPKKLIYDTSKLASGVPSRFSGSGSGTDYTFTISSLEAEDAATYYCQQWTTNPLTFGQGTKVEIKRTVAAPSVFIFPPSDEQLKSGTASVVCLLNNFYPREAKVQWKVDNALQSGNSQESVTEQDSKDSTYSLSSTLTLSKADYEKHKVYACEVTHQGLSSPVTKSFNRGEC
[2]
  ADCC fold increase (LDH release, HT1080 target cells with human PBMC, antibody 0.1 µg/ml): 1.8 fold

B4: anti-VLA-2 IgG3 (antibody)
heavy: QVQLQESGPGLVKPSETLSLTCTVSGFSLTNYGIHWIRQPPGKGLEWLGVIWARGFTNYNSALMSRLTISKDNSKNQVSLKLSSVTAADTAVYYCARANDGVYYAMDYWGQGTLVTVSSASTKGPSVFPLAPCSRSTSGGTAALGCLVKDYFPEPVTVSWNSGALTSGVHTFPAVLQSSGLYSLSSVVTVPSSSLGTQTYTCNVNHKPSNTKVDKRVELKTPLGDTTHTCPRCPEPKSCDTPPPCPRCPEPKSCDTPPPCPRCPEPKSCDTPPPCPRCPAPELLGGPSVFLFPPKPKDTLMISRTPEVTCVVVDVSHEDPEVQFKWYVDGVEVHNAKTKPREEQYNSTFRVVSVLTVLHQDWLNGKEYKCKVSNKALPAPIEKTISKTKGQPREPQVYTLPPSREEMTKNQVSLTCLVKGFYPSDIAVEWESSGQPENNYNTTPPMLDSDGSFFLYSKLTVDKSRWQQGNIFSCSVMHEALHNRFTQKSLSLSPGK
light: DFVMTQSPAFLSVTPGEKVTITCSAQSSVNYIHWYQQKPDQAPKKLIYDTSKLASGVPSRFSGSGSGTDYTFTISSLEAEDAATYYCQQWTTNPLTFGQGTKVEIKRTVAAPSVFIFPPSDEQLKSGTASVVCLLNNFYPREAKVQWKVDNALQSGNSQESVTEQDSKDSTYSLSSTLTLSKADYEKHKVYACEVTHQGLSSPVTKSFNRGEC
[1]
  CDC fold increase over the parental anti-VLA-2 IgG4 antibody (LDH release, HT1080 cells, baby rabbit complement, antibody 1 µg/ml): ≥ 9.6 fold

B5: anti-VLA-2 IgG1-E269D (antibody)
heavy: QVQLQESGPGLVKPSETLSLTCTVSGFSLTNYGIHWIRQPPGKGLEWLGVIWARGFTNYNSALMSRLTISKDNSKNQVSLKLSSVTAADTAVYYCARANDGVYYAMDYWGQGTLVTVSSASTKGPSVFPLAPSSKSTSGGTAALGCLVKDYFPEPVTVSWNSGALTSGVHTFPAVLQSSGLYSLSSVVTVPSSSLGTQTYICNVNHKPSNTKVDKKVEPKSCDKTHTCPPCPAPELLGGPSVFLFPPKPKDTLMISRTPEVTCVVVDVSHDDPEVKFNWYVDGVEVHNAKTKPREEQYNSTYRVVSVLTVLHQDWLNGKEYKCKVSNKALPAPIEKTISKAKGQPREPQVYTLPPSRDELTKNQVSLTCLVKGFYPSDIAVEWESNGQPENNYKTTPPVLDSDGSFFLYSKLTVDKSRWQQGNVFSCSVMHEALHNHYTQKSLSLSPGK
light: DFVMTQSPAFLSVTPGEKVTITCSAQSSVNYIHWYQQKPDQAPKKLIYDTSKLASGVPSRFSGSGSGTDYTFTISSLEAEDAATYYCQQWTTNPLTFGQGTKVEIKRTVAAPSVFIFPPSDEQLKSGTASVVCLLNNFYPREAKVQWKVDNALQSGNSQESVTEQDSKDSTYSLSSTLTLSKADYEKHKVYACEVTHQGLSSPVTKSFNRGEC
[2]
  ADCC fold increase (LDH release, HT1080 target cells with human PBMC, antibody 0.1 µg/ml): 1.5 fold

B6: anti-VLA-2 IgG1-S324N (antibody)
heavy: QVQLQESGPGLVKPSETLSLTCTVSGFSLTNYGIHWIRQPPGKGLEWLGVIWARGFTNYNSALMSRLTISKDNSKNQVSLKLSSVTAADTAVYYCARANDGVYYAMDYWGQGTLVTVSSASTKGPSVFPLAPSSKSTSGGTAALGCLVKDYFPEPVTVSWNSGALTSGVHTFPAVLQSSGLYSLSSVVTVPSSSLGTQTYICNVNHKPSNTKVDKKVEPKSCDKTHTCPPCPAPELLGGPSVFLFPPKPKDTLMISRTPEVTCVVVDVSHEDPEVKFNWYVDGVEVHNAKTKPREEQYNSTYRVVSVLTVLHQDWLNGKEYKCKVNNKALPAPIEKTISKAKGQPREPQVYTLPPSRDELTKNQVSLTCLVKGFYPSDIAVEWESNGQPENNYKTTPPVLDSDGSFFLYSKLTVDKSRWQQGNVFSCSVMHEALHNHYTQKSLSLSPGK
light: DFVMTQSPAFLSVTPGEKVTITCSAQSSVNYIHWYQQKPDQAPKKLIYDTSKLASGVPSRFSGSGSGTDYTFTISSLEAEDAATYYCQQWTTNPLTFGQGTKVEIKRTVAAPSVFIFPPSDEQLKSGTASVVCLLNNFYPREAKVQWKVDNALQSGNSQESVTEQDSKDSTYSLSSTLTLSKADYEKHKVYACEVTHQGLSSPVTKSFNRGEC
[1]
  CDC fold increase (LDH release, HT1080 cells, baby rabbit complement, antibody 1 µg/ml): ≥ 6.4 fold

B7: anti-VLA-2 IgG1-E269D/S298A/S324N (antibody)
heavy: QVQLQESGPGLVKPSETLSLTCTVSGFSLTNYGIHWIRQPPGKGLEWLGVIWARGFTNYNSALMSRLTISKDNSKNQVSLKLSSVTAADTAVYYCARANDGVYYAMDYWGQGTLVTVSSASTKGPSVFPLAPSSKSTSGGTAALGCLVKDYFPEPVTVSWNSGALTSGVHTFPAVLQSSGLYSLSSVVTVPSSSLGTQTYICNVNHKPSNTKVDKKVEPKSCDKTHTCPPCPAPELLGGPSVFLFPPKPKDTLMISRTPEVTCVVVDVSHDDPEVKFNWYVDGVEVHNAKTKPREEQYNATYRVVSVLTVLHQDWLNGKEYKCKVNNKALPAPIEKTISKAKGQPREPQVYTLPPSRDELTKNQVSLTCLVKGFYPSDIAVEWESNGQPENNYKTTPPVLDSDGSFFLYSKLTVDKSRWQQGNVFSCSVMHEALHNHYTQKSLSLSPGK
light: DFVMTQSPAFLSVTPGEKVTITCSAQSSVNYIHWYQQKPDQAPKKLIYDTSKLASGVPSRFSGSGSGTDYTFTISSLEAEDAATYYCQQWTTNPLTFGQGTKVEIKRTVAAPSVFIFPPSDEQLKSGTASVVCLLNNFYPREAKVQWKVDNALQSGNSQESVTEQDSKDSTYSLSSTLTLSKADYEKHKVYACEVTHQGLSSPVTKSFNRGEC
[1]
  CDC fold increase (LDH release, HT1080 cells, baby rabbit complement, antibody 1 µg/ml): ≥ 9 fold
[2]
  ADCC fold increase (LDH release, HT1080 target cells with human PBMC, antibody 0.1 µg/ml): 1.7 fold

B8: anti-VLA-2 IgG-3133 (antibody)
heavy: QVQLQESGPGLVKPSETLSLTCTVSGFSLTNYGIHWIRQPPGKGLEWLGVIWARGFTNYNSALMSRLTISKDNSKNQVSLKLSSVTAADTAVYYCARANDGVYYAMDYWGQGTLVTVSSASTKGPSVFPLAPCSRSTSGGTAALGCLVKDYFPEPVTVSWNSGALTSGVHTFPAVLQSSGLYSLSSVVTVPSSSLGTQTYTCNVNHKPSNTKVDKRVEPKSCDKTHTCPPCPAPELLGGPSVFLFPPKPKDTLMISRTPEVTCVVVDVSHEDPEVQFKWYVDGVEVHNAKTKPREEQYNSTFRVVSVLTVLHQDWLNGKEYKCKVSNKALPAPIEKTISKTKGQPREPQVYTLPPSREEMTKNQVSLTCLVKGFYPSDIAVEWESSGQPENNYNTTPPMLDSDGSFFLYSKLTVDKSRWQQGNIFSCSVMHEALHNRFTQKSLSLSPGK
light: DFVMTQSPAFLSVTPGEKVTITCSAQSSVNYIHWYQQKPDQAPKKLIYDTSKLASGVPSRFSGSGSGTDYTFTISSLEAEDAATYYCQQWTTNPLTFGQGTKVEIKRTVAAPSVFIFPPSDEQLKSGTASVVCLLNNFYPREAKVQWKVDNALQSGNSQESVTEQDSKDSTYSLSSTLTLSKADYEKHKVYACEVTHQGLSSPVTKSFNRGEC
[1]
  CDC fold increase (LDH release, HT1080 cells, baby rabbit complement, antibody 1 µg/ml): ≥ 8.6 fold

B9: anti-VLA-2 IgG-1133 (antibody)
heavy: QVQLQESGPGLVKPSETLSLTCTVSGFSLTNYGIHWIRQPPGKGLEWLGVIWARGFTNYNSALMSRLTISKDNSKNQVSLKLSSVTAADTAVYYCARANDGVYYAMDYWGQGTLVTVSSASTKGPSVFPLAPSSKSTSGGTAALGCLVKDYFPEPVTVSWNSGALTSGVHTFPAVLQSSGLYSLSSVVTVPSSSLGTQTYICNVNHKPSNTKVDKKVEPKSCDKTHTCPPCPAPELLGGPSVFLFPPKPKDTLMISRTPEVTCVVVDVSHEDPEVQFKWYVDGVEVHNAKTKPREEQYNSTFRVVSVLTVLHQDWLNGKEYKCKVSNKALPAPIEKTISKTKGQPREPQVYTLPPSREEMTKNQVSLTCLVKGFYPSDIAVEWESSGQPENNYNTTPPMLDSDGSFFLYSKLTVDKSRWQQGNIFSCSVMHEALHNRFTQKSLSLSPGK
light: DFVMTQSPAFLSVTPGEKVTITCSAQSSVNYIHWYQQKPDQAPKKLIYDTSKLASGVPSRFSGSGSGTDYTFTISSLEAEDAATYYCQQWTTNPLTFGQGTKVEIKRTVAAPSVFIFPPSDEQLKSGTASVVCLLNNFYPREAKVQWKVDNALQSGNSQESVTEQDSKDSTYSLSSTLTLSKADYEKHKVYACEVTHQGLSSPVTKSFNRGEC
[1]
  CDC fold increase (LDH release, HT1080 cells, baby rabbit complement, antibody 1 µg/ml): ≥ 5.6 fold
